Measured values reported in PMC3991395 (2014).

Tests used:
[1] = biological target: RNF4 C55S, C59S tagged with glycine-cysteine at its C terminus (RNF4-C196); assay: cross-linking; disulfide dimer formation of RNF4-C196; 0.062, 0.12, 0.25, 0.5 and 1 μM protein, room temperature, 2 hr, no reducing agents, no SUMO; nonreducing SDS-PAGE and western blotting with an RNF4 antibody; the species is sensitive to DTT
[2] = biological target: T1, RNF4 wild type, recombinant, with N-terminal fusions of ECFP or YFP, O88846; assay: FRET or BRET; in vitro FRET in the presence of poly-SUMO-2; YFP-RNF4 fixed at 0.5 μM, ECFP-RNF4 increased in 0.05 μM increments from 0 to 0.5 μM; triplicates; apparent Kd from a fit to a single binding site model; conditions: remark: other sources report otherwise
T1 chain: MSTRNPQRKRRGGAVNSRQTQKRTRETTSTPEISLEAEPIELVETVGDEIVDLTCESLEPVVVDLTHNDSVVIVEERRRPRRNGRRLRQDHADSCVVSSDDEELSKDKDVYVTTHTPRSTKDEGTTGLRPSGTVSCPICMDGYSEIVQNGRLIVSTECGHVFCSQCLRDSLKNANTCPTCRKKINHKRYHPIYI

[3] = biological target: T1, RNF4 wild type, recombinant, with …; assay: FRET or BRET; in vitro FRET in the absence of poly-SUMO-2; YFP-RNF4 fixed at 0.5 μM, ECFP-RNF4 increased in 0.05 μM increments from 0 to 0.5 μM; triplicates; fit to a single binding site model; monomer to dimer; conditions: remark: other sources report otherwise
FRET; with polySUMO-2 = biological target: the molecule itself; assay: FRET; with polySUMO-2

RNF4 C55S, C59S tagged with glycine-cysteine at its C terminus (RNF4-C196) (enzyme)
stoichiometry N [1]: 2

B1: RNF4 wild type, recombinant, with N-terminal fusions of ECFP or YFP, O88846 1-194 (enzyme)
chain: MSTRNPQRKRRGGAVNSRQTQKRTRETTSTPEISLEAEPIELVETVGDEIVDLTCESLEPVVVDLTHNDSVVIVEERRRPRRNGRRLRQDHADSCVVSSDDEELSKDKDVYVTTHTPRSTKDEGTTGLRPSGTVSCPICMDGYSEIVQNGRLIVSTECGHVFCSQCLRDSLKNANTCPTCRKKINHKRYHPIYI
Kd [2]: 60 nM | Kd [3]: 180 nM

B2: RNF4 I194A, dimerization-deficient mutant, recombinant, with N-terminal fusions of ECFP or YFP (enzyme)
chain: MSTRNPQRKRRGGAVNSRQTQKRTRETTSTPEISLEAEPIELVETVGDEIVDLTCESLEPVVVDLTHNDSVVIVEERRRPRRNGRRLRQDHADSCVVSSDDEELSKDKDVYVTTHTPRSTKDEGTTGLRPSGTVSCPICMDGYSEIVQNGRLIVSTECGHVFCSQCLRDSLKNANTCPTCRKKINHKRYHPIYA
Kd (FRET; with polySUMO-2): 166 nM
